Test results: article doi:10.1101/2025.08.13.669967

Legend:
[1] = molecular target: Artemia franciscana ferritin (Artemia franciscana); test: native gel or EMSA
[2] = molecular target: Artemia franciscana ferritin (Artemia franciscana); test: cryo-EM structure

“Artemia franciscana ferritin (natural protein)” gave a stoichiometry N [1] of 24 and a stoichiometry N [2] of 24.
